Our source for the Kd values is article PMC10201443, “Site-directed biochemical analyses reveal that the switchable C-terminus of Rpc31 contributes to RNA polymerase III transcription initiation” (Nucleic Acids Research, 2022).

First the molecules themselves.
B1: Full-length Rpc34 protein with an N-terminal V5 epitope tag, Alexa 647-labeled (natural protein)
chain: MSGMIENGLQLSDNAKTLHSQMMSKGIGALFTQQELQKQMGIGSLTDLMSIVQELLDKNLIKLVKQNDELKFQGVLESEAQKKATMSAEEALVYSYIEASGREGIWSKTIKARTNLHQHVVLKCLKSLESQRYVKSVKSVKFPTRKIYMLYSLQPSVDITGGPWFTDGELDIEFINSLLTIVWRFISENTFPNGFKNFENGPKKNVFYAPNVKNYSTTQEILEFITAAQVANVELTPSNIRSLCEVLVYDDKLEKVTHDCYRVTLESILQMNQGEGEPEAGNKALEDEEEFSIFNYFKMFPASKHDKEVVYFDEWTI
modifications: Alexa Fluor 647 NHS Ester label (labeling efficiency ~0.8)

Test [1] has as its target T1, Rpc31(aa 121–251)_Flag_ΔS151-G164 (S. cerevisiae, UniProt P17890 121-251, ΔS151-G164).
T1 sequence: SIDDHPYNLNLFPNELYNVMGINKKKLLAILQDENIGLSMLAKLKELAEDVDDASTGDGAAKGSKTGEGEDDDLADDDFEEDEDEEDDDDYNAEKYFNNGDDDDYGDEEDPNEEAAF
Nature of the test: MST.

Test [2] deals with B1. Description: MST.
Test [3] has as its target T2, Full-length Rpc34 protein with an N-terminal V5 epitope tag, Alexa 647-labeled (S. cerevisiae, UniProt P32910 1-317, Alexa Fluor 647 NHS Ester label (labeling efficiency ~0.8)).
T2 construct: Rpc34 of S. cerevisiae, full-length protein; also called Alexa647-labeled Rpc34; fluorescently-labeled Rpc34 protein; source: E. coli BL21 (DE3) RIL, purified (Ni-Sepharose, SUMO tag removed with Ulp1, second Ni-Sepharose passage)
T2 sequence (looked up): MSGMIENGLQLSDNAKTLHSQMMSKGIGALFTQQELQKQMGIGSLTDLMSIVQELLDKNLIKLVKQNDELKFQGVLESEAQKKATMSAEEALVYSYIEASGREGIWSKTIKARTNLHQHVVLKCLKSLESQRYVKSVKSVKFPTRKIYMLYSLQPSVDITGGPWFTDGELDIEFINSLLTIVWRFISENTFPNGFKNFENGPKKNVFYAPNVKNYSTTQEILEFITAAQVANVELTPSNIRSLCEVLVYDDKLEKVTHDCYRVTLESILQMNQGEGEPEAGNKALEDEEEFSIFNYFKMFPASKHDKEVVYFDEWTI
Nature of the test: MST; Alexa647-labeled Rpc34 constant at 5 nM, unlabeled Rpc31 peptides titrated (WT 1.16 μM to 0.000035 μM); 5 mM sodium phosphate pH 8.0, 0.05% Tween 20; 25°C; MST-on time 5 s; three independent measurements. Particulars: both partners purified.

The term Kd denotes the concentration at which binding is half-saturated.

B1 gave a Kd in test [1] of 6.1 µM.

B2: Rpc31(121-251)-Flag_ΔG141-I150 (protein)
chain: SIDDHPYNLNLFPNELYNVMSKFNNADDVFTGTGLQDENIGLSMLAKLKELAEDVDDASTGDGAAKGSKTGEGEDDDLADDDFEEDEDEEDDDDYNAEKYFNNGDDDDYGDEEDPNEEAAF
Consider B2, for which the affinity in test [2], expressed as Kd, was 4.4 µM.

B3: Rpc31(aa 121–251)_Flag (domain or fragment, S. cerevisiae, UniProt P17890 121-251, looked up)
chain: SIDDHPYNLNLFPNELYNVMGINKKKLLAISKFNNADDVFTGTGLQDENIGLSMLAKLKELAEDVDDASTGDGAAKGSKTGEGEDDDLADDDFEEDEDEEDDDDYNAEKYFNNGDDDDYGDEEDPNEEAAF
notes: Rpc31 of S. cerevisiae, C-terminal aa 121-251; also called Rpc31 C-terminal Ser121-Phe251 peptide; Rpc31 (aa 121–251) peptide; source: E. coli BL21 (DE3) RIL, purified (Ni-Sepharose, SUMO tag removed with Ulp1, second Ni-Sepharose passage, Source15Q); not shown: FLAG, C-terminal, kept
With B3, the Kd in test [3] was determined as 0.883 ± 0.339 µM.

B4: Rpc31(aa 121–251)_Flag_E183K (domain or fragment, S. cerevisiae, UniProt P17890 121-251, looked up)
chain: SIDDHPYNLNLFPNELYNVMGINKKKLLAISKFNNADDVFTGTGLQDENIGLSMLAKLKELAKDVDDASTGDGAAKGSKTGEGEDDDLADDDFEEDEDEEDDDDYNAEKYFNNGDDDDYGDEEDPNEEAAF
notes: Rpc31 of S. cerevisiae, C-terminal aa 121-251 with E183K; the methods describe only the wild-type construct; also called Rpc31 peptide with a Glu183Lys (E183K) point mutation; source: E. coli, recombinantly expressed and purified; not shown: FLAG, C-terminal, kept
In test [3], B4 registered a Kd of 8.5 ± 5.6 µM.

B5: Rpc31(121-251)-Flag_ΔL165-V185 (protein)
chain: SIDDHPYNLNLFPNELYNVMGINKKKLLAISKFNNADDVFTGTGDDASTGDGAAKGSKTGEGEDDDLADDDFEEDEDEEDDDDYNAEKYFNNGDDDDYGDEEDPNEEAAF
Take B5: the Kd in test [2] came to 1.2 µM.
